The source of these data is a protein production outcome set (Wang et al. 2014).
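Also: failed if final PepcDB status was selected cloned or expressed and not failed if soluble or beyond.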

This data set in a line: label from the status in PepcDB records.
For “MPLSVGQGYFTSSISSEKFNAIKESARLPELSLWEKIKAYFFTTHHAEALECIFNLYHHQELNLTPVQVRGAYIKLRALASQGCKEQFIIESQEHADKLIIKDDNGENILSIEVECHPEAFGLAKEINKSHPKPKNISLGDITRLVFFGDSLSDSLGRMFEKTHHILPSYGQYFGGRFTNGFTWTEFLSSPHFLGKEMLNFAEGGSTSASYSCFNCIGDFVSNTDRQVASYTPSHQDLAIFLLGANDYMTLHKDNVIMVVEQQIDDIEKIISGGVNNVLVMGIPDLSLTPYGKHSDEKRKLKDESIAHNALLKTNVEELKEKYPQHKICYYETADAFKVIMEAASNIGYDTENPYTHHGYVHVPGAKDPQLDICPQYVFNDLVHPTQEVHHCFAIMLESFIAHHYSTE”, the protein production entry is “failed”.

For “MLNDGVYLAQARGMAGFVHAKLTVKDNKIVGVDLDLTTETPENKPKVEQQLKKEILTRQSADIDAVSGATFTSNGVKEAVQQTLKQAEKLEHHHHHH”, the protein production result is reported as “not failed”. Next, “MSDSPRPSSRPDFWDVRYERDRHLFGAEPNAFVKAEAHRLPPESEVVEVGAGEGRTAAWLAREHGHRVTAVDFSETALKTAQERAEAEHLRLDTVRADVRTWRPDRQWDAAVVTFLQLLPDERPRLYRLLKNSVRSGGWLLAEWLRPAHLTGPYDRMGPSRADRMVPVDEVRRAFADEHLASVEAVDVHLQEGPHLTGDAAVVRGIVQAGAS”: “failed”; “METSMRYTSNSKSMKIHAKEKVPVNSKTHLQLHGELDTGTGAPSYFCAMIRHFFPEASTGLGVGLHYDKRQKLRCLVRGKKEFPVRADKRVTFNIKGRCDIDQDLNQKNPKGAAEFAWNIMDFKEDQDVRIKVGYEMFDKVPYMQIRENNWTLNANMKGKWNLRYDL”: “failed”; “DYQKEYERKLISPEEAANLVKDGMHIEIGGSANTALIIDKYLAKRKDELSHVEVGTFIDIAHYEFLKADPEQEKIKWESCFLYEPVRKCSKELGPCVHRPGVLSDAGYIAKELGGVLKGGKKYTDIAFLVTTPMDRHGFFNFGVTCTFLKSIAEGAEKVVVVVKKDMPWVNGGYDECIHISEVDYIVEDNEFPTPFLPFLPPPSKEDEMIAENIMEAGLIENGSTLQVGIGGLPNTVVRMLKEAGLKDLGIHTEMMGDGLMELMEEGIVTNQNKKLDRGKAVFSFALGTRKLYDFLDRNPEVATYPVEYTNNPFVVAQQPKMFSLNQVAQIDLMGQINSGQIGLTSPSGKIFQISGTGGQLDFVLGCFYSFDRQGKSVLATYSTYNGTSRIIPALPTGAGVTVPRSVVQYVATEWGIAYLRGLPIYKRAAAMIQLAHPDHRDWLEEEARKLGILPPKYSIPAGKADGVIYRRD”: “failed”. Next, “MELKDIMHILEDMKVGVFATLDEYGNPHARHAHITAANEEGIFFMTSPETHFYDQLMGDQRVAMTAISEEGYLIQVVRVEGTARPVENDYLKTVFADNPYYQHIYKDESSDTMQVFQIYAGHGFYHSLTQGHKYIFSIGQGEHSEVRAL”: “not failed”; “MDSSDSHVGQDVYVDQGLGEPDRLERLWAPYRMSYINTRSGGKQSTTAKRDPFIEVPKMSDEDGLIVARGELVYCVLNLYPYNAGHMMVIPFRKEKNLEDLSLAESAELMLFTQTAIKALKQVSNPDAVNVGLNLGKASGGSVGDHLHVHVVPRWSGDANFMTVIDGVKVLPQTLRQTRAMLAQAWGTIDGAPGTVDPTLTSAIRTAAPKEH”: “failed”. Turning to “MCLCQLSRRKKRPDDSDTQSAPGAVQGTGADYSGAVTASAASTVTHPTVTRHVTASGARIYTIGIRAFEHLGVNVFLVVVGDPQQPSYTALIDAGSSFDFSQQGLLDGLKRVREEYGEAWSWETLSRLVITHPHPDHVGGLPFVRTLTAAPVAAHALAAAVIEEPGRRAEAFKLGADAMLARLGVPEGEYAARLRRRAGNLMSPSGVKVETALQDGDTLDGLFTVLHTPGHDGAQICLRLDEVLLSADHLLPHNSPPLMPGWMLPGSGLGPYLAALDHIETLEGVDLALGSHDEPMPDWRGRVDFLRRRYDDKLRGVLGAASEPQTIYALTCAVNPRLRAAQALLLLDQTAALVEELVVRGELHETREQAADGERWTYQRA”, the protein production result was “failed”. On to “GSSGSSGHADEVWPGLYLGDQDMANNRRELRRLGITHVLNASHSRWRGTPEAYEGLGIRYLGVEAHDSPAFDMSIHFQTAADFIHRALSQPGGKILVHCAVGVSRSATLVLAYLMLYHHLTLVEAIKKVKDHRGIIPNRGFLRQLLALDRRLRQGLEA”, for which the protein production entry is “not failed”.
